What was measured:
[1] = target: endogenous folate receptor alpha in human serum and plasma samples (human) (UniProt P15328); assay: ECL sandwich competition; competitors 24H8.D3 capture / 19D4.B7 detection; plasma samples; MORAb-003 100 µg/mL
[2] = target: recombinant purified FRα (ECL assay calibrator) (human) (UniProt P15328); assay: ECL sandwich competition; competitors 9F3 capture / 24F12 detection; FRα standard STD01; MORAb-003 50 µg/mL
[3] = target: endogenous folate receptor alpha in human serum and plasma samples (human) (UniProt P15328); assay: ECL sandwich capture 1C6.E12.G8 / detection 19D4.B7; serum incubated overnight with 10 µg/mL MORAb-003
[4] = target: recombinant purified FRα (ECL assay calibrator) (human) (UniProt P15328); assay: ECL sandwich competition; competitors 9F3 capture / 24F12 detection; FRα standard STD04; MORAb-003 50 µg/mL
[5] = target: recombinant purified FRα (ECL assay calibrator) (human) (UniProt P15328); assay: ECL sandwich capture 19D4.B7 / detection 24H8.D3; calibrator incubated overnight with 10 µg/mL MORAb-003
[6] = target: endogenous folate receptor alpha in human serum and plasma samples (human) (UniProt P15328); assay: ECL sandwich capture 19D4.B7 / detection 2F11.F8; serum incubated overnight with 10 µg/mL MORAb-003
[7] = target: recombinant purified FRα (ECL assay calibrator) (human) (UniProt P15328); assay: ECL sandwich capture 1A8.G11.E7 / detection 6A2.G7; calibrator incubated overnight with 10 µg/mL MORAb-003
[8] = target: recombinant purified FRα (ECL assay calibrator) (human) (UniProt P15328); assay: ECL sandwich competition; competitors 9F3 capture / 24F12 detection; FRα standard STD08; MORAb-003 50 µg/mL
[9] = target: endogenous folate receptor alpha in human serum and plasma samples (human) (UniProt P15328); assay: ECL sandwich capture 6A2.G7 / detection 6A2.G7; serum incubated overnight with 10 µg/mL MORAb-003; no % sign in this cell
[10] = target: recombinant purified FRα (ECL assay calibrator) (human) (UniProt P15328); assay: ECL sandwich capture 30G6.G6.G4.E9 / detection 2F11.F8; calibrator incubated overnight with 10 µg/mL MORAb-003
[11] = target: recombinant purified FRα (ECL assay calibrator) (human) (UniProt P15328); assay: ECL sandwich capture 6A2.G7 / detection 24H8.D3; calibrator incubated overnight with 10 µg/mL MORAb-003
[12] = target: recombinant purified FRα (ECL assay calibrator) (human) (UniProt P15328); assay: ECL sandwich capture 19D4.B7 / detection 1A8.G11.E7; calibrator incubated overnight with 10 µg/mL MORAb-003
[13] = target: recombinant purified FRα (ECL assay calibrator) (human) (UniProt P15328); assay: ECL sandwich capture 24H8.F3 / detection 30G6.G6.G4.E9; calibrator incubated overnight with 10 µg/mL MORAb-003
[14] = target: endogenous folate receptor alpha in human serum and plasma samples (human) (UniProt P15328); assay: ECL sandwich capture 19D4.B7 / detection 26A9.C4; serum incubated overnight with 10 µg/mL MORAb-003
[15] = target: recombinant purified FRα (ECL assay calibrator) (human) (UniProt P15328); assay: ECL sandwich capture 30G6.G6.G4.E9 / detection 5C12.H8; calibrator incubated overnight with 10 µg/mL MORAb-003
[16] = target: recombinant purified FRα (ECL assay calibrator) (human) (UniProt P15328); assay: ECL sandwich capture 19D4.B7 / detection 5C12.H8; calibrator incubated overnight with 10 µg/mL MORAb-003
[17] = target: recombinant purified FRα (ECL assay calibrator) (human) (UniProt P15328); assay: ECL sandwich capture 30G6.G6.G4.E9 / detection 24H8.F3; calibrator incubated overnight with 10 µg/mL MORAb-003
[18] = target: recombinant purified FRα (ECL assay calibrator) (human) (UniProt P15328); assay: ECL sandwich capture 30G6.G6.G4.E9 / detection 1C6.E12.G8; calibrator incubated overnight with 10 µg/mL MORAb-003
[19] = target: recombinant purified FRα (ECL assay calibrator) (human) (UniProt P15328); assay: ECL sandwich capture 1A8.G11.E7 / detection 19D4.B7; calibrator incubated overnight with 10 µg/mL MORAb-003
[20] = target: endogenous folate receptor alpha in human serum and plasma samples (human) (UniProt P15328); assay: ECL sandwich capture 19D2.G9 / detection 19D4.B7; serum incubated overnight with 10 µg/mL MORAb-003
[21] = target: recombinant purified FRα (ECL assay calibrator) (human) (UniProt P15328); assay: ECL sandwich capture 19D2.G9 / detection 30G6.G6.G4.E9; calibrator incubated overnight with 10 µg/mL MORAb-003
[22] = target: endogenous folate receptor alpha in human serum and plasma samples (human) (UniProt P15328); assay: ECL sandwich capture 19D4.B7 / detection 1C6.E12.G8; serum incubated overnight with 10 µg/mL MORAb-003
[23] = target: recombinant purified FRα (ECL assay calibrator) (human) (UniProt P15328); assay: ECL sandwich capture 6A2.G7 / detection 1D2.G8.G10; calibrator incubated overnight with 10 µg/mL MORAb-003
[24] = target: recombinant purified FRα (ECL assay calibrator) (human) (UniProt P15328); assay: ECL sandwich competition; competitors 9F3 capture / 24F12 detection; FRα standard STD06; MORAb-003 10 µg/mL

recombinant purified FRα (ECL assay calibrator) (human), sequence (P15328 25-234 limits assumed): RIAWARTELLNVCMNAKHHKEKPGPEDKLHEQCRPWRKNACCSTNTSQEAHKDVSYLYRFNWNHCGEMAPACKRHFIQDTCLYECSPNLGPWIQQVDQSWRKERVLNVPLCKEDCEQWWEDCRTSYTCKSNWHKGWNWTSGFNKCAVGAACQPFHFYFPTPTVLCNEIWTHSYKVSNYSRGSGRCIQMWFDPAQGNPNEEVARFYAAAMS
endogenous folate receptor alpha in human serum and plasma samples (human), sequence (P15328 25-234 limits assumed, form in doubt): as the sequence (P15328 25-234 limits assumed) above

percent inhibition (median, plasma) [1]: 4%
% of signal without MORAb-003 (MORAb-003 interference) [2]: 54%
Drug suppression of serum [3]: -52%
% of signal without MORAb-003 (MORAb-003 interference) [4]: 57%
Drug Suppression of Cal Signal at 500 pg/mL [5]: -6%
Drug suppression of serum [6]: 0.82%
Drug Suppression of Cal Signal at 500 pg/mL [7]: 16%
% of signal without MORAb-003 (MORAb-003 interference) [8]: 115%
Drug suppression of serum [9]: -45.8
Drug Suppression of Cal Signal at 500 pg/mL [10]: -1%
Drug Suppression of Cal Signal at 500 pg/mL [11]: -9%
Drug Suppression of Cal Signal at 500 pg/mL [12]: -2%
Drug Suppression of Cal Signal at 500 pg/mL [13]: -6%
Drug suppression of serum [14]: -3.77%
Drug Suppression of Cal Signal at 500 pg/mL [15]: -7%
Drug Suppression of Cal Signal at 500 pg/mL [16]: -10%
Drug Suppression of Cal Signal at 500 pg/mL [17]: -8%
Drug Suppression of Cal Signal at 500 pg/mL [18]: -7%
Drug Suppression of Cal Signal at 500 pg/mL [19]: -16%
Drug suppression of serum [20]: 4.68%
Drug Suppression of Cal Signal at 500 pg/mL [21]: -4%
Drug suppression of serum [22]: -6.01%
Drug Suppression of Cal Signal at 500 pg/mL [23]: -7%
% of signal without MORAb-003 (MORAb-003 interference) [24]: 103%
B1: farletuzumab (MORAb-003) (antibody, part only; not given: Constant regions, V domains shown, not shown: another chain or arm of the molecule)
VH: EVQLVESGGGVVQPGRSLRLSCSASGFTFSGYGLSWVRQAPGKGLEWVAMISSGGSYTYYADSVKGRFAISRDNAKNTLFLQMDSLRPEDTGVYFCARHGDDPAWFAYWGQGTPVTVSS
VL: DIQLTQSPSSLSASVGDRVTITCSVSSSISSNNLHWYQQKPGKAPKPWIYGTSNLASGVPSRFSGSGSGTDYTFTISSLQPEDIATYYCQQWSSYPYMYTFGQGTKVEIK

— patent US20180148504A1
